For series [1], the target named is T1, KlRad5 (Kluyveromyces lactis, UniProt Q6CJM4 163-1114).
T1 sequence: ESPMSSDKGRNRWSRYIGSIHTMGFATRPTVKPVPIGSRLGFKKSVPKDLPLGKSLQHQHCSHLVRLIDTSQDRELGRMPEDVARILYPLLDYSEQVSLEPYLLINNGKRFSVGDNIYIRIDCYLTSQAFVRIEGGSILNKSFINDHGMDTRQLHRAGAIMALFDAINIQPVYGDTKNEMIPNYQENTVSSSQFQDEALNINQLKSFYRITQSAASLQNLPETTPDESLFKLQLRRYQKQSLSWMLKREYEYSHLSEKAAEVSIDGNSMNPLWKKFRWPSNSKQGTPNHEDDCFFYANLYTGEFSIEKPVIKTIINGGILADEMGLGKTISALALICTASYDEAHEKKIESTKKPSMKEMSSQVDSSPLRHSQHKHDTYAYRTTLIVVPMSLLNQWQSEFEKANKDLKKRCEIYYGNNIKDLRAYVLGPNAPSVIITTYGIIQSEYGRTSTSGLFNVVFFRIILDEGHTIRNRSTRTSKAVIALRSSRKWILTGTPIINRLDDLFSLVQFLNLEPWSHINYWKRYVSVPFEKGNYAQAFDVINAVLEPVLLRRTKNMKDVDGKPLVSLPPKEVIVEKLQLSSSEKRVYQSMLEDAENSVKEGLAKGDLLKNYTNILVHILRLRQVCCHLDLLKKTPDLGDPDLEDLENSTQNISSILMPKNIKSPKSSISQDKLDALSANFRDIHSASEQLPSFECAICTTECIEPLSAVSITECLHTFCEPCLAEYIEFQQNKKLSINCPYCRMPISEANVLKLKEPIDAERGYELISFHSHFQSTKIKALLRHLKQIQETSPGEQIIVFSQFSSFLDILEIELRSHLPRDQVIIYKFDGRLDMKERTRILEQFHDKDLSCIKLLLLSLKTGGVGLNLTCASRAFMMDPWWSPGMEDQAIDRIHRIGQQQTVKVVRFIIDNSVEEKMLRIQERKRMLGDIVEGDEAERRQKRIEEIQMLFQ
The series is described as follows: fluorescence polarization; 70 mM NaCl; FP: 20 mM Tris pH 7.5, 50 mM (dsDNA, KlHIRAN) or 70 mM (ssDNA) NaCl, 2 mM MgCl2, 1 nM DNA, room temp; EMSA: 20 mM Tris pH 7.5, 100 mM KCl, 0.5 mM DTT, 3% glycerol, 2 mM MgCl2, 250 ug/mL BSA, 4 C; pull-down: 20 mM Tris pH 7.5, 50 mM NaCl, 4 C. Conditions: protein: recombinant; tags: none; label: 5'-FAM.

The target of another series is T2, His-KlRad5 (Kluyveromyces lactis, UniProt Q6CJM4 163-1114).
T2 sequence: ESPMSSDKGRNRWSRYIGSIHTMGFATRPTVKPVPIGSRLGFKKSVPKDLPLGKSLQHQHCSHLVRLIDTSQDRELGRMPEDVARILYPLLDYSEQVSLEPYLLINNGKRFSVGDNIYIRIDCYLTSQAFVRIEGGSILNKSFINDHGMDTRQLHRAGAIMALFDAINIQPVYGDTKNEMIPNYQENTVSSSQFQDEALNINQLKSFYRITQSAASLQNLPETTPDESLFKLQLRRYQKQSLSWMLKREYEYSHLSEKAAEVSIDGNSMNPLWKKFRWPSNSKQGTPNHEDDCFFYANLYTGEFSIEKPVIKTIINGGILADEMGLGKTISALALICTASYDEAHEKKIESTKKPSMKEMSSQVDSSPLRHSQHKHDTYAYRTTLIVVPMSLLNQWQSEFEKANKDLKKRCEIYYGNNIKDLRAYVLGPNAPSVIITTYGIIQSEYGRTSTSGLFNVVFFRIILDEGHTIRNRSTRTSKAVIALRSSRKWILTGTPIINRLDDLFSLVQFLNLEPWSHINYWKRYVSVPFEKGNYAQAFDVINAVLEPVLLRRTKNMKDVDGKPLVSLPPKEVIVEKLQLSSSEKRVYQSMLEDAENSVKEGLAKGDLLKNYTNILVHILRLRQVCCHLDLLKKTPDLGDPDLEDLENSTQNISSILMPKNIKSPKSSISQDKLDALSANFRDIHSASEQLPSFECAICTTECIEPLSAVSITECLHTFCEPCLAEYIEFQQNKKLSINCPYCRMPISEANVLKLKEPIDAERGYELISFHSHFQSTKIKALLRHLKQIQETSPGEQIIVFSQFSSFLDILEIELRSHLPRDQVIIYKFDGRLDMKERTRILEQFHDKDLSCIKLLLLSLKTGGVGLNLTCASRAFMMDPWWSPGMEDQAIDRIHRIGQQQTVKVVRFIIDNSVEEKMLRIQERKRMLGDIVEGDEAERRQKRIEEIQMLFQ
The series is described as follows: fluorescence polarization; FP: 20 mM Tris pH 7.5, 50 mM (dsDNA, KlHIRAN) or 70 mM (ssDNA) NaCl, 2 mM MgCl2, 1 nM DNA, room temp; EMSA: 20 mM Tris pH 7.5, 100 mM KCl, 0.5 mM DTT, 3% glycerol, 2 mM MgCl2, 250 ug/mL BSA, 4 C; pull-down: 20 mM Tris pH 7.5, 50 mM NaCl, 4 C. Conditions: protein: recombinant; tags: N-terminal His6; label: 5'-FAM. (Fluorescence polarisation rises when a labelled molecule tumbles more slowly, as on binding a larger partner.)

The next series has as its target T3, HsHIRAN (Homo sapiens, UniProt Q14527 55-180).
T3 sequence: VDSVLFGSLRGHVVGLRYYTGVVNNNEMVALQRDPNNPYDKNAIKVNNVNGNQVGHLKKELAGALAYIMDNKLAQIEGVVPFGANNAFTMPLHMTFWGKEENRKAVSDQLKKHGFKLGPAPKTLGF
The series is described as follows: EMSA; strong preference for free 3'-OH; FP: 20 mM Tris pH 7.5, 50 mM (dsDNA, KlHIRAN) or 70 mM (ssDNA) NaCl, 2 mM MgCl2, 1 nM DNA, room temp; EMSA: 20 mM Tris pH 7.5, 100 mM KCl, 0.5 mM DTT, 3% glycerol, 2 mM MgCl2, 250 ug/mL BSA, 4 C; pull-down: 20 mM Tris pH 7.5, 50 mM NaCl, 4 C. Conditions: protein: recombinant; tags: His (pET28a), HA; label: 5'-FAM.

The target of another series is T4, KlHIRAN (Kluyveromyces lactis, UniProt Q6CJM4 174-341).
T4 sequence: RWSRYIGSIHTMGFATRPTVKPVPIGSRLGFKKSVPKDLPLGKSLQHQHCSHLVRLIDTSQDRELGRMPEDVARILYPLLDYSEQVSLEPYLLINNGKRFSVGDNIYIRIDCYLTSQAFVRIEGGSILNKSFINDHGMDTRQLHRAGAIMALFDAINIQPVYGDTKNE
Briefly: EMSA; FP: 20 mM Tris pH 7.5, 50 mM (dsDNA, KlHIRAN) or 70 mM (ssDNA) NaCl, 2 mM MgCl2, 1 nM DNA, room temp; EMSA: 20 mM Tris pH 7.5, 100 mM KCl, 0.5 mM DTT, 3% glycerol, 2 mM MgCl2, 250 ug/mL BSA, 4 C; pull-down: 20 mM Tris pH 7.5, 50 mM NaCl, 4 C. The settings on record: protein: recombinant; tags: intein-CBD cleaved off; label: 5'-FAM. (In general: Mobility shift assays separate free from complexed probe on a gel.)

The target in the next series is T5, ScHIRAN (Saccharomyces cerevisiae, UniProt P32849 171-375).
T5 sequence: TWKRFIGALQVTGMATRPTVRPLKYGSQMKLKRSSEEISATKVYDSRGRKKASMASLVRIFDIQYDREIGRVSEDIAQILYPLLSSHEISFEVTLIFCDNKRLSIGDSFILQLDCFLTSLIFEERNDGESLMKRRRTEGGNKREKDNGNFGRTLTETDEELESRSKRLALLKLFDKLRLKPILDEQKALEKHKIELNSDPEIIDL
The series is described as above. The settings on record: protein: recombinant; tags: intein-CBD cleaved off; label: 5'-FAM.

For series [2], the target named is T1, KlRad5. The series is described as follows: fluorescence polarization; 70 mM NaCl; similar to 5'-FAM; FP: 20 mM Tris pH 7.5, 50 mM (dsDNA, KlHIRAN) or 70 mM (ssDNA) NaCl, 2 mM MgCl2, 1 nM DNA, room temp; EMSA: 20 mM Tris pH 7.5, 100 mM KCl, 0.5 mM DTT, 3% glycerol, 2 mM MgCl2, 250 ug/mL BSA, 4 C; pull-down: 20 mM Tris pH 7.5, 50 mM NaCl, 4 C. The settings on record: protein: recombinant; tags: none; label: 3'-FAM.

This is an account of results in publication PMC7804152, “Structural basis for the multi-activity factor Rad5 in replication stress tolerance”.

As to TTTTTTTCGTCTTCGGCAATTTTTT (ssDNA) [S1 ssDNA, 5'-FAM], the binding result with KlRad5 [1] and with His-KlRad5 was “binds” each time.

As to TTTTTTTTTT (ssDNA) [dT10, 5'-FAM], the binding result with HsHIRAN, in the series with KlHIRAN and in the series with ScHIRAN was “binds” throughout.

Regarding TTTTTTTCGTCTTCGGCAATTTTTT (ssDNA) [S1 ssDNA, 3'-FAM], the binding result in the series with KlRad5 [2] is listed as “binds”.
